The nanobody polyreactivity screen of Harvey et al. (2022)

Test: yeast display, Sf9 membrane polyspecificity reagent, FACS + sequencing; frameworks hold sequencing errors
In short: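 Sorting gates, low and high (top ~1%), were placed on anti-HA fluorescence to track expression and on streptavidin fluorescence to track reagent binding. A clone's polyreactivity label is taken from the gate it came out of. The reagent was 10% biotinylated, detergent-solubilized Sf9 membrane, applied for 1 hour at 4 °C to galactose-induced yeast display cells.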

Sequence	polyreactivity (PSR sort gate)
QVQLVESGGGLVQAGGSLRLSCAASGLIFPLYAMGWYRHAPGKERELVAAITSSGGSTYYADSVKGRFTISRDNAKNTVYLQMNSLKPEDTAVYYCAADYSVYWLDYGYWGQGTQVTVSS	low polyreactivity
QVQLVESGGGLVQAGGSLRLSCAASGLIFPRNAMGWYRQAPGKERELVAAITSGGGTNYADSVKWRFTISRDNAKNTVYLQMNSLIPEDTAVYYCAADYSVASPDGPYVIYDYWGQGTQVTVSS	low polyreactivity
QVQLVESGGGLVQAGGSLRLSCAASGLIFPWNAMGWYRQAPGKERELVAAINGRDGSTYYADSVKGLFTISRDNAKNTVYLQMNSLKPEDTAVYYCAKGPSGVRTYREYDSWGQGPQVTVSS	low polyreactivity
QVQLVESGGGLVQAGGSLRLSCAASGLIFPYYAMGWYRQAPGKERELVAAISRSGDSTYYADSVKGRFTISRDNAKITVYLQMNSLKPEDTAFYYCAAVLSYSYVRYNYWGQGTQVNVSS	high polyreactivity
QVQLVESGGGLVQAGGSLRLSCAASGLIFQVYDMGWYRQAPGKERELVAAISSGSNTNYADSVKGRFTISRDNAKNTVYLQMNSLKPEDTAVYYCAASWGYGALTPDMGYWGQGTQVTVSS	low polyreactivity
QVQLVESGGGLVQAGGSLRLSCAASGLIFQWYAMGWYRQAPGKERELVAAITGSGGSTYYADSVKGRFTISRDNAKNTVYLQMNSLKPEDTAVYYCNAGASRRYGYWGQGTQVTVSS	high polyreactivity
QVQLVESGGGLVQAGGSLRLSCAASGLIFRAYAMGWYRQAPGKERELVAAITRSGGRTYYADSVKGRFTISRDNAKNTVYLQMNSLTPEDTAVYYCAAEYGNTYSSYTYDYWGQGTQVTVSS	high polyreactivity
QVQLVESGGGLVQAGGSLRLSCAASGLIFRAYAMGWYRQAPGKETELVAAITWNGGSTNYADSVKGRFTISRDNAKNTVYLQMHSLKPEDTAVYYCAAGSSRVFRKAGITRPSGLYYYWGQGTQVTVSS	high polyreactivity
QVQLVESGGGLVQAGGSLRLSCAASGLIFRAYGMGWYIQAPGKERELLAAITWNGGSTNYADSVKGRFTISRDNAKNTVYLQMNSLKPEDTAVYYCAARLAGRGSSSSRVVRTGGYWGQGTQVTVSS	high polyreactivity
QVQLVESGGGLVQAGGSLRLSCAASGLIFRDNTMGWYRQAPGKERELVAAINSGGGTSYADSVKGRFTISRDNAKNTVYLQMNSLKPEDTAVYYCAAAWWPYRYGTYYSQYDYWGQGTQVTVSS	low polyreactivity
QVQLVESGGGLVQAGGSLRLSCAASGLIFRLYAMGWYRQAPGKERELVAAISGGGGSTYYADSVKGRFTISRDNAKNTVYLQMNSLKPEDTAVYYCAATYSRGYWWSEYDYWGQGTQVTVSS	low polyreactivity
QVQLVESGGGLVQAGGSLRLSCAASGLIFRLYAMGWYRQAPGKERELVAAISVSGAITYYADSVKGRFTISRDNAKNTVYLLMNSLKPEDTAVYYCNAQAVFRRDGYVYWDVDYWGQGTQVTVSS	low polyreactivity
QVQLVESGGGLVQAGGSLRLSCAASGLIFRPYAMGWYRQAPGKERELVAGINSGGNTDYADTVKGRFTISRDNAKNTVYLQMNSLKPEDTAVYYCNREYQVTIYDYWGQGSQVTVSS	low polyreactivity
QVQLVESGGGLVQAGGSLRLSCAASGLIFRRNAMGWYRQAPGKERELVAAISRSSGSTYYADSVKGRFTISRDNAKNTVYLQMNSLKPEDTAVYYCAVHVWGTYGSWEYYYWGQGTQVTVSS	high polyreactivity
QVQLVESGGGLVQAGGSLRLSCAASGLIFRSYAMGWYRQAPGKERELVARISIRGGSTYYADSVKGRFTISRDNAKYTVYLQMNSLKPEDTAVYYCGAVGYFGGFRYDYWGQGTQVTVSS	high polyreactivity
QVQLVESGGGLVQAGGSLRLSCAASGLIFRTYTMGWYRQAPGKERELVAAISASGGRTYYADSVKGRFTISRDTAKNTVYLQMNRLKPEDTAVNYFNARVNYKGYDSWGQGTQVTVSS	high polyreactivity
QVQLVESGGGLVQAGGSLRLSCAASGLIFRTYTMGWYRQAPGKERELVATITRRGGTTYYADSVKGRFTISRDNAKNTVYLQMKSLKPEDTAVYYCAKSPYYTWKYDYWGQGTQVTVSS	high polyreactivity
QVQLVESGGGLVQAGGSLRLSCAASGLIFRYYAMGWYRQAPGKERELVAAISSSGTRTYYADSVKGRFTISRDNAKNTVYLQMNSLKPEDTSVYYCATENQNPTGGYWGQGTQVTVSS	high polyreactivity
QVQLVESGGGLVQAGGSLRLSCAASGLIFSGSAMGWYRQAPGKERELVAAITWSGGSTYYADSVKGRFTISRDNAKNSVYLQMNSQKPEDTAVYYCNAKFYQISRYGYWGQGTQVTVSS	high polyreactivity
QVQLVESGGGLVQAGGSLRLSCAASGLIFSLNAMGWYRHATGKERELVAAISSDDSTYYADSVKGRFTISRDNAKNNVYLQMNSLTPEDTAVYYCAAVQLVPGYVDSNDYYWGQGTQVTVSS	low polyreactivity
QVQLVESGGGLVQAGGSLRLSCAASGLIFSRYAMGWYRQAPGKEREFVAAINWNGGRTYYADSVKGRFTISRDNAKNTVYLQMNSLKPEDTAVYYCAATWIDYYVIYAYDYWGQGTQVTVSS	high polyreactivity
QVQLVESGGGLVQAGGSLRLSCAASGLIFSRYAMGWYRQGPGKERELVAASSGGGGSTYYADSVKGRFTISRDNAKNTVYLQMNSLKPEDTAVYYSARKYTRKIPASDYWGQGTQVTVSS	high polyreactivity

Sequence	polyreactivity (PSR sort gate)
QVQLVESGGGLVQAGGSLRLSCAASGLIFSVYAMGWYRQAPGKERELVAAISWSGSTYYADSVKGRFTISRDNAKNTVYLQMNSLKPEDTAVYYCAAEYDYDHFYWMDYWGQGTQVTVSS	high polyreactivity
QVQLVESGGGLVQAGGSLRLSCAASGLIFSWYAMGWYRQAPGKEREFVAGISKGGDSTYYADSVKGRFTISRDNAKNTVYLQMNSLKPEDTAVYYCAADWWQGTSHYWGGAYNYWGQGTQVTVSS	low polyreactivity
QVQLVESGGGLVQAGGSLRLSCAASGLIFSYNAMGWYRPATGNERELVATIRRVGSTNYADSVKGRFTISRDNAKITVYLQMNSLKPEDTAVYYCAARSLRYGRGMYYWGQGTQVTVSS	high polyreactivity
QVQLVESGGGLVQAGGSLRLSCAASGLIFSYYVMGWYRQAHGKERELVAAISRRGGSTYYADSVKGRFTISRDNAKNTVYLQMNSLKPEDTAVYYCNAQRNFKSITEYDYWGQGTQVTVSS	high polyreactivity
QVQLVESGGGLVQAGGSLRLSCAASGLIFSYYVMGWYRQAPGKERELVAAISRIGGSTYYADSVKGRFTISRDNAKNTVYLQMNSLKPEDTAVYYCAAYDLSPGSLTGGYYWGQGTQVTVSS	high polyreactivity
QVQLVESGGGLVQAGGSLRLSCAASGLIFTPYAMGWYRQAPGKESELVAAISSSGGTTYYADSVKGRFTISRDNAKNTVYLQMKSLKPEDTAVYYCAADTGYPGYYPEYYWGQGTQVTVSS	high polyreactivity
QVQLVESGGGLVQAGGSLRLSCAASGLIFTRNAMGWYRQAPGKERELVASISNSGGSTYYADSVKGRFTISRDNAKNTVYLQMNSLKPEDTAVYYCAAPTHLHGHGNQNEFYYWGQGTQVTVSS	low polyreactivity
QVQLVESGGGLVQAGGSLRLSCAASGLIFTRNAMGWYRQAPGKERELVATITWSGGRTYYADSVKGRFTISRDNAKNTVYLQMNSLKPEDTAVYYCAAASGPLTYTFFRNDYWGQGTQVTVSS	low polyreactivity
QVQLVESGGGLVQAGGSLRLSCAASGLIFTSYPMGWDRQAPGKERELVAAIDTSGGSTYYADSVKGRFTISRDNAKNTVYLQMNSLKPEDTAVYYCAATSTYRSYLEYDYWGQGTQVTVSS	low polyreactivity
QVQLVESGGGLVQAGGSLRLSCAASGLIFTTNAMGWSRPAPGTEREFVAAISPSGGSTYYADSVKGRFTISRDNAKNTVYLQMNSLKPEDTAVYYCAARYSPVWHKYYYWGQGTQVTVSS	high polyreactivity
QVQLVESGGGLVQAGGSLRLSCAASGLIFTTNAMGWYRQAPGKEREFVAAISPSGGSTYYADSVKGRFTISRDNAKNTVYLQMNSLKPEDTAVYYCAAAGWSARGYNYWGQGTQVTVSS	high polyreactivity
QVQLVESGGGLVQAGGSLRLSCAASGLIFTTYDMGWYRQAPGKERELVAAISASSDTTYYADSVKGRFTISRDNAKNTVYLQMNSLKPEDTAVYYCAADRFDFPTATGSNYWGQGTQVTVSS	low polyreactivity
QVQLVESGGGLVQAGGSLRLSCAASGLIFTYYAMGWYRQAPGKERELVAGISSGTNTNYADSVKGRFTISRDNAKNTVYLQMISLKPEDTAVYYCAKTRGYQFVAYGYWGQGTQVTVSS	low polyreactivity
QVQLVESGGGLVQAGGSLRLSCAASGLIFVHYDMGWYRQAPGKERELVAAISAGGGSTYYADSVKGRFTISRYNSKNTVYLQMNSLLPEDTAVYYCIARVVNYFRPRTGAREYDFWGQGTQGTVSS	high polyreactivity
QVQLVESGGGLVQAGGSLRLSCAASGLIFVINAMGCYRQAPGKERELVATISSGVSTNNADSVKGRFTISRDNAKNTVYLQMYSLKPEDTAVYYCNKGQTVSRGYRLYERFVYWGQGTQVTVSS	low polyreactivity
QVQLVESGGGLVQAGGSLRLSCAASGLIFVINAMGWYRQAPGTERELVATISSGVSTNYADSVKGRFTISRDNAKNTVYLQMNSLKPEDTAVYYCNKGQTVSRGYRLYERYVYWGQGTQVTVSS	low polyreactivity
QVQLVESGGGLVQAGGSLRLSCAASGLIFVRYAMGWYRQAPGKERELVATITWSGGTTYADSVKGRFTISRDNGKNTVYLQMNSLKPEDTEVYDCAVEWPAWTDSDYPVGGHAFGYWGQVTQVTVSS	low polyreactivity
QVQLVESGGGLVQAGGSLRLSCAASGLIFVVYAMGWYRQAPGKERELVAAISRSGGRTYYADSVKGRFTISRDNAKNTVYLQMNSLKPEDTAVYYCAARRYSTTFGRLFDYWGQGTQVTVSS	high polyreactivity
QVQLVESGGGLVQAGGSLRLSCAASGLIFVVYTMGWYRQAPGKERELVAAITGRGGSTYADSVKGRFTISRDNAKNTVYLQMNSLKPEDNAVYYCNRADYYGYRFRVYDRLDYWGQGTQVTVSS	low polyreactivity
QVQLVESGGGLVQAGGSLRLSCAASGLIFWGYTMGWYRQAPGKERELVAAISRSGGRTYYADSVKGRFTISRDNAKNTVYLQMNSLKPEDTAVYYCAARYYYWGQGTQVTVSS	high polyreactivity
QVQLVESGGGLVQAGGSLRLSCAASGLIFWLNAMGWYRQAPGKERELVAAISSSGGRTYYADSVKGRFTISRDNAKNTVYLQMNSLKPEDTAVYYCNRGQQGRGWWGYDYWGHGTQVTVSS	high polyreactivity
